Here are results for 2 molecules from patent US10323085B2, “Methods of treating fibromyalgia” (Teva Pharmaceuticals International GmbH, priority 2008, dated 2019).

In data set [1] the target is T1, 25-37 human α-CGRP fragment (Homo sapiens, UniProt P06881).
T1 construct: (CGRP 25-37)
The data set can be described thus: Alanine scan of C-terminal CGRP fragment (CGRP 25-37) by Biacore, epitope identification. The data set is classed as binding. The settings on record: 25° C., Biacore 3000. As to the method: Interaction analysis was conducted at 25° C. on a Biacore 3000™ system equipped with streptavidin-coated (SA) sensor chips (Biacore AB, Uppsala, Sweden) using a standard Biacore running buffer (HBS-P). […] Each amino acid between position 27-37 was then mutated individually to alanine and expressed the fold loss in affinity compared to the wild-type fragment. N-biotinylated fragments were captured on individual flow cells at low levels (typically 100 response units) to provide the reaction surfaces, while an unmodified flow cell served as a reference channel. Purified Fab fragments of antibody G1 were generated. Fab fragments were titrated over the chip using 1 μM as the top concentration of a two-fold dilution series. Association and dissociation phases were monitored at 100 μl/min for 1 minute and 5 minutes respectively. Surfaces were regenerated with a mixture of 35% ethanol+25 mM NaOH+0.5M NaCl.
Background: In SPR one partner is held on a chip, and binding of the other changes the refractive index at the surface.

Another data set concerns CGRP. Kind of data set: Neurogenic skin flare rat model (saphenous nerve stimulation, laser Doppler blood flow). Format: in vivo. Conditions: for start of significant decrease in blood flow response post dose: intravenous; for development of neurogenic flare in vivo: rat. On the procedure: Using a neurogenic skin flare rat model the efficacy of G1 was tested for its ability to block CGRP effect in vivo. The saphenous nerve in the rat is electrically stimulated causing CGRP release from nerve endings and leading to vasodilation, the resulting changes in blood flow can be measured using laser Dopler methods.
Changes in blood flow parameters were expressed as the area under the curve (AUC, change in arbitrary Doppler flux units multiplied by time). CGRP receptor antagonist CGRP8-37 (400 nmol/kg, i.v.) was used as a positive control to validate the specificity of the model (data not shown). To determine the effect of G1 prior to dosing for each animal, the baseline blood flow response to stimulation was established with two saphenous nerve stimulations each 30 minutes apart. Rats were treated with G1 after the blood flow response of the second stimulation had returned to baseline levels (approximately 10 minutes post stimulation) and an additional four stimulations at 30 minute intervals were performed.

The subject of data set [2] is CGRP1-receptor in SK-N-MC cells. The data set can be described thus: Binding assay: blocking human α-CGRP from binding to the CGRP1-receptor in SK-N-MC cells. The settings on record: FIG. 4.
In another data set the target is T2, amylin (Homo sapiens, UniProt P10997).
T2 sequence (P10997 34-70 limits assumed): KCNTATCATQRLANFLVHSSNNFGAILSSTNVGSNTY
Kind of data set: Solution competition by Biacore (specificity). The data set is classed as binding. Conditions: pre-incubated with an excess of amylin. The source says: (§1) We determined the specificity of antibody G1 to human or rat CGRP by using the Biacore chip to “probe” the free concentration of a premixed complex of mAb+peptide.

The next data set addresses T3, calcitonin (Homo sapiens, UniProt P01258).
T3 sequence (P01258 85-116 limits assumed): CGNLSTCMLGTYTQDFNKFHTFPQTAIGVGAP
Kind of data set: Solution competition by Biacore (specificity). Format: binding. Conditions: pre-incubated with an excess of calcitonin.
Description: as §1

A further data set deals with rat CGRP. Kind of data set: Solution competition by Biacore (specificity). The data set is classed as binding. The settings on record: pre-incubated with rat CGRP.
Description: as §1

The test system of the next data set is human CGRP. The data set can be described thus: Solution competition by Biacore (specificity). Format: binding. Conditions: pre-incubated with human CGRP.
Description: as §1

A further data set has as its target T4, adrenomedullin (Homo sapiens, UniProt P35318).
T4 sequence (P35318 95-146 limits assumed): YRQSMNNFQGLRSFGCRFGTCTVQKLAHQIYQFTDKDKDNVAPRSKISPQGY
Kind of data set: Solution competition by Biacore (specificity). The data set is classed as binding. Conditions: pre-incubated with an excess of adrenomedullin.
Description: as §1

The next data set relates to rats. Kind of data set: Indicators of physical or psychological dependence, long term observation of dosed animals. Conditions: rat, in vivo.
The test system of data set [3] is MRMT-1 injected rats. The data set can be described thus: Rota rod test for motor impairment in the bone cancer pain model. Format: in vivo, rat. Conditions: MRMT-1 injected rats treated at day 9 post surgery. The source says:
A further end point tested in the bone cancer pain model was ambulation (by rotarod). The test is to obtain a measurement of locomotor impairment comparing antibody treated with control animals, each subjected to the same test under the same conditions. The rota rod test consists of 4 rotateable drums divided by flanges with a motor-driven drum accelerated (Ugo Basile, Comerio, VA, Italy). For a given trial, a rat is placed on the rotating rod and the rotation speed is accelerated from 4 to 16 rpm in 2 min. The time of maximal performance is typically set at 120 sec. Each animal generally receives three trials per day, at 1 hr intervals, for several consecutive days post-surgery. The latency to fall off the rod is represented as mean of the three trials.

Data set [4] deals with MRMT-1 injected rats. Kind of data set: Bone cancer pain model (MRMT-1), mechanical hypersensitivity to von Frey stimuli. Format: in vivo, rat. Conditions: IV 10 mg/kg at day 9. As to the method:
Tumour cells used are syngeneic MRMT-1 rat mammary gland carcinoma cells donated from the Novartis Institute (London). The cells are cultured in RPMI 1640 (Gibco) with 10% foetal bovine serum (FCS), 1% L-glutamine 2% penicillin/streptomycin (Gibco). Two brief washes are carried out with 0.1% w/v trypsin to release those cells which adhere to the flask, and then quenched with an equal volume of 10% FCS, followed by centrifugation of the solution for 3 minutes at 1200 rpm. The pellet is washed and resuspended in Hanks medium, and the concentration of cells calculated using a Haemocytometer, with trypan blue staining to determine the number of dead MRMT-1 cells. The final concentration of 3×10^3 cells was then obtained by diluting the solution according to the number of cells seen. The final solution was kept on ice until time of injection.
Male Sprague-Dawley rats weighing close to 170 g at time of surgery were used to generate the cancer model. Anaesthesia was induced in the rats using halothane or isoflurane (1.5-2%) 66% N2O and 33% O2, the leg was shaved over the appropriate area and disinfected with chlorhexidine (Animalcare Ltd, UK.). A small incision in order to expose the anterior-medial surface of the distal end of the tibia was made. A hole was bored in the periosteum using a 0.7 mm dental drill, through which a 2 cm polythene tubing was fed 1 cm into the intra-medullar cavity of the tibia. Using a Hamilton syringe the pre-prepared 10 μl of 3×10^3 MRMT-1 cells were injected through the tubing into the cavity. The tubing was then removed and the hole plugged using bone restorative material (IRM, Dentsply USA). The wound was then irrigated with 0.9% saline and closed with a metal clip. The sham animals were operated upon using the same procedure but injected with 10 μl of Hank's solution alone. The animals were placed in a thermoregulated recovery box until such time that they were able to be placed back in their housing cages.
Testing behaviour towards mechanical stimuli uses von Frey filaments (North Coast Medical Inc., USA) to the plantar surface of both the ipsilateral and contralateral hindpaw. The rats were placed in a Perspex cubicle with a mesh floor and allowed to acclimatise for 10 minutes. Each von Frey was applied 10 times to each hindpaw alternating between the ipsilateral and contralateral, for duration of 2-3 seconds each time. […] A nocifensive response (a lift) is defined as a brisk withdrawal of the hindpaw and the number of lifts for each paw at each von Frey are recorded (maximum of 10) and expressed as a percentage response. An assessment of the efficacy of rodent anti-CGRP antibody G2 in attenuating hypersensitivity to a wide variety of static mechanical, cooling and integrated stimuli was carried out as well as the background basal pain behaviours in this validated model of cancer induced bone pain. The responses measured are attenuated by standard analgesic treatments such as morphine and gabapentin. All measures were made by the same scientist in a blind fashion—blinded to the identity of the compound/control and to the treatment of the animal.
G2-was given IV at 10 mg/kg at day 9 and rats were tested at 2 hrs and then on days 10, 11, 12 and then 14-18 days post treatment (FIG. 1).

For “G1: humanized IgG2Δa monoclonal anti-CGRP antagonist antibody from expression vectors ATCC PTA-6867 and PTA-6866; variable regions SEQ ID Nos. 1 and 2”, the “affinity of N-biotinylated 25-37 human α-CGRP fragment compared with full-length N-biotinylated human α-CGRP” value in data set [1] is on record as “same affinity”. In addition, the “start of significant decrease in blood flow response post dose” value came out at 120 min in the data set on CGRP (1 mg/kg) and 90 min with CGRP (10 mg/kg). The “inhibits neurogenic flare in the skin starting from, post-treatment” value in the data set with CGRP (FIG. 9, intravenous administration) turned out to be 90 min. For the same molecule, the “development of neurogenic flare in vivo” value with CGRP is recorded as “prevent the development of neurogenic flare”. In addition, in data set [2], the “inhibition of binding of α-CGRP to the CGRP1 receptor” value is “inhibits the binding”. Further, the “complex formation with peptide” value with amylin, with calcitonin and in the data set with adrenomedullin was “did not form a complex” throughout. Further, the “Biacore response after pre-incubation with peptide” value with rat CGRP and in the data set on human CGRP was “fully blocked” each time. In addition, in the data set with rats, the CNS penetration result was “Neither antibody G1 nor antibody G2 demonstrate CNS penetration”.

B1: G2: anti-rat CGRP mouse monoclonal antibody (Wong H C et al. Hybridoma 1993); variable regions SEQ ID Nos. 19 and 20; murine tool (antibody, V domains shown)
VH: EVQLQQSGPELVKPGASVKMSCKASGYTFTSSVMHWVKQKPGQGLEWIGYINPYNDGTKYNEKFKGKATLTSDKSSSTAYMELSSLTSEDSAVYYCAKGGNDGYWGQGTTLTVSS
VL: EIVLTQSPTTMAASPGEKITITCSASSSISSIYLHWYQQKPGFSPKVLIYRASNLASGVPARFSGSGSGTSYSLTIGTMEAEDVATYYCQQGSTIPFTFGSGTKLEIK
modifications: Synthetic polypeptide, Antibody G2 heavy chain variable region; Synthetic polypeptide, Antibody G2 light chain variable region
notes: anti-rat CGRP mouse monoclonal antibody (Wong H C et al. Hybridoma 1993); murine tool
Turning to B1, the “latency to fall from the rotarod during forced ambulation vs vehicle group” value in the data set with MRMT-1 injected rats [3] was “No differences were found”. Further, the “development of neurogenic flare in vivo” value with CGRP was “prevent the development of neurogenic flare”. Besides, the “hypersensitivity to von Frey 15 g vs vehicle treated group” value in the data set on MRMT-1 injected rats [4] (2 and 3 days after drug administration) is on record as “significance seen”; with MRMT-1 injected rats [4] (2 hours post-injection) it was “reduction in hypersensitivity”; in the data set on MRMT-1 injected rats [4] (6 days after G2 administration) it was “reductions were lost”. Further, the “Withdrawal frequencies to von Frey 8 g vs vehicle treated group” value in the data set with MRMT-1 injected rats [4] (day 14 (day 5 post-G2 injection)) was “no discernible difference”; in the data set with MRMT-1 injected rats [4] (days 11 and 12 (days 2 and 3 after injection)), “significantly reduced”. Further, the “Withdrawal frequencies to von Frey 8 g” value in the data set on MRMT-1 injected rats [4] (two hours after injection) was “reduced”. The CNS penetration entry in the data set on rats is reported as “Neither antibody G1 nor antibody G2 demonstrate CNS penetration”.
